This test concerns the target T1, endogenous EGFR in mouse ventral midbrain (VM) tissue (mouse, UniProt Q01279 25-1210).
T1 construct: Native protein in a tissue extract
The test is described as follows: co-immunoprecipitation from mouse ventral midbrain extracts, Western blot. The method, then: COS-7 or HEK 293 cells (100 mm dishes) were transfected with Sp35, EGFR and Sp35/EGFR. The cells were harvested after 48 hours and lysed in 1 ml lysis buffer (50 mM HEPES, pH 7.5, 150 mM NaCl, 1.5 mM MgCl₂, 1 mM EDTA, 1% Triton x-100, 10% glycerol) or RIPA buffer (50 mM TRIS, pH 7.2, 1% Triton X-100, 0.5% sodium deoxycholate, 0.1% SDS, 150 mM NaCl, 10 mM MgCl₂, 5% glycerol) for 30 minutes at 4° C. After centrifugation at 14,000×g for 15 minutes, the supernatants were incubated with Protein A/G-Sepharose beads (Santa Cruz Biotechnology) at 4° C. for 1 hour, and then 200 μl of the precleared lystates were incubated with either anti-EGFR (Santa Cruz Biotechnology) at 4° C. for 1 hour, anti-Sp35 antibody (Biogen Idec, described in U.S. Provisional Patent Application No. 60/697,336, which is incorporated by reference herein in its entirety) followed by treatment with Protein A/G-Sepharose beads. The beads were washed 3 times with lysis buffer, boiled in Laemmeli sample buffer, subjected to 4-20% SDS-PAGE, and analyzed by Western blotting with anti-EGFR antibody or anti-Sp35 antibody. The EGFR and Sp35 antibodies were visualized using anti-rabbit IgG-HRP.
Sp35 KO or WT VMs were lysed in RIPA buffer and pre-cleared by Protein A/G plus-Sepharose beads as described above. […]
For orientation: Immunoblotting shows a protein as a band on a membrane.

B1: endogenous Sp35 (LINGO-1) in mouse ventral midbrain (VM) tissue (receptor, UniProt Q9D1T0 36-614, looked up)
chain: CPPRCECSAQDRAVLCHRKRFVAVPEGIPTETRLLDLGKNRIKTLNQDEFASFPHLEELELNENIVSAVEPGAFNNLFNLRTLGLRSNRLKLIPLGVFTGLSNLTKLDISENKIVILLDYMFQDLYNLKSLEVGDNDLVYISHRAFSGLNSLEQLTLEKCNLTSIPTEALSHLHGLIVLRLRHLNINAIRDYSFKRLYRLKVLEISHWPYLDTMTPNCLYGLNLTSLSITHCNLTAVPYLAVRHLVYLRFLNLSYNPIGTIEGSMLHELLRLQEIQLVGGQLAVVEPYAFRGLNYLRVLNVSGNQLTTLEESAFHSVGNLETLILDSNPLACDCRLLWVFRRRWRLNFNRQQPTCATPEFVQGKEFKDFPDVLLPNYFTCRRAHIRDRKAQQVFVDEGHTVQFVCRADGDPPPAILWLSPRKHLVSAKSNGRLTVFPDGTLEVRYAQVQDNGTYLCIAANAGGNDSMPAHLHVRSYSPDWPHQPNKTFAFISNQPGEGEANSTRATVPFPFDIKTLIIATTMGFISFLGVVLFCLVLLFLWSRGKGNTKHNIEIEYVPRKSDAGISSADAPRKFNMKMI
notes: Native protein in a tissue extract; Sp35 knock-out VM served as the control
Consider B1, for which the binding result is recorded as “binds”.

Values taken from US20090246189A1 (Biogen, published 2009).
